Test results from US12497446B2, “Tetranectin-targeting monoclonal antibodies to fight against lethal sepsis and other pathologies” (The Feinstein Institutes For Medical Research, priority 2019, dated 2025).

What was measured:
[1] = system: Balb/C mice subjected to CLP sepsis; assay: Animal model of lethal sepsis (CLP), animal survival; type: in vivo, mouse; conditions: for protection against lethal sepsis: i.p., 2 h post onset
Experimental: This study was conducted in accordance with policies of the NIH Guide for the Care and Use of Laboratory Animals and approved by the IACUC of the Feinstein Institute for Medical Research, Manhasset, New York, USA. To evaluate the role of TN in lethal sepsis, Balb/C mice (male, 7-8 weeks, 20-25 g) were subjected to lethal endotoxemia or sepsis induced by cecal ligation and puncture (CLP) as previously described. Briefly, the cecum of Balb/C mice was ligated at 5.0 mm from the cecal tip, and then punctured once with a 22-gauge needle. At 30 min post CLP, all animals were given a subcutaneous dosing of imipenem/cilastatin (0.5 mg/mouse) (Primaxin, Merck & Co., Inc., West Point, Pa.), and resuscitation with normal sterile saline solution (20 ml/kg). Recombinant TN or anti-TN polyclonal or monoclonal IgGs were intraperitoneally administered into endotoxemic or septic mice at indicated doses and time points, and animal survival rates were monitored for up to two weeks. To evaluate the role of TN in lethal sepsis, a few breeding pairs of the heterozygous TN (also called “CLCE3B”)-KO mice were obtained from the Jackson Laboratory (Stock No. 027554, Bar Harbor, ME, USA), and bred to produce homozygous TN KO as well as wild-type littermates. Age- and sex-matched wild-type (WT) or TN knockout (KO) C57/B6 mice were then used to induce CLP sepsis via identical procedures, and animal survival rates were compared for more than two weeks.

[2] = system: Balb/C mice subjected to lethal endotoxemia; assay: Animal model of lethal endotoxemia (LPS), animal survival; type: in vivo, mouse; conditions: i.p., 2 h post onset
Experimental: This study was conducted in accordance with policies of the NIH Guide for the Care and Use of Laboratory Animals and approved by the IACUC of the Feinstein Institute for Medical Research, Manhasset, New York, USA. To evaluate the role of TN in lethal sepsis, Balb/C mice (male, 7-8 weeks, 20-25 g) were subjected to lethal endotoxemia or sepsis induced by cecal ligation and puncture (CLP) as previously described. Briefly, the cecum of Balb/C mice was ligated at 5.0 mm from the cecal tip, and then punctured once with a 22-gauge needle. At 30 min post CLP, all animals were given a subcutaneous dosing of imipenem/cilastatin (0.5 mg/mouse) (Primaxin, Merck & Co., Inc., West Point, Pa.), and resuscitation with normal sterile saline solution (20 ml/kg). Recombinant TN or anti-TN polyclonal or monoclonal IgGs were intraperitoneally administered into endotoxemic or septic mice at indicated doses and time points, and animal survival rates were monitored for up to two weeks. To evaluate the role of TN in lethal sepsis, a few breeding pairs of the heterozygous TN (also called “CLCE3B”)-KO mice were obtained from the Jackson Laboratory (Stock No. 027554, Bar Harbor, ME, USA), and bred to produce homozygous TN KO as well as wild-type littermates. […]

B1: human TN: eukaryote-derived recombinant human tetranectin expressed in HEK293 kidney cells (ACROBiosystems) (protein, UniProt P05452 22-202, looked up)
Tetranectin: EPPTQKPKKIVNAKKDVVNTKMFEELKSRLDTLAQEVALLKEQQALQTVCLKGTKVHMKCFLAFTQTKTFHEASEDCISRGGTLGTPQTGSENDALYEYLRQSVGNEAEIWLGLNDMAAEGTWVDMTGARIAYKNWETEITAQPDGGKTENCAVLSGAANGKWFDKRCRDQLPYICQFGIV
- protection against lethal sepsis [1]: reproducible and dose-dependent protection
- protection against lethal endotoxemia [2]: reproducible and dose-dependent protection

B2: murine TN: prokaryotes-derived (E. coli) recombinant murine tetranectin (protein)
chain: ESPTPKAKKAANAKKDLVSSKMFEELKNRMDVLAQEVALLKEKQALQTVCLKGTKVNLKCLLAFTQPKTFHEASEDCISQGGTLGTPQSELENEALFEYARHSVGNDANIWLGLNDMAAEGAWVDMTGGLLAYKNWETEITTQPDGGKAENCAALSGAANGKWFDKRCRDQLPYICQFAIV
- protection in sepsis at sub-physiological doses ([1]; 0.1 mg/kg): conferred reproducible protection
- protection in sepsis at super-physiological doses ([1]; 1.0 mg/kg): not associated with any protective effect
- protection against lethal sepsis [1]: reproducible and dose-dependent protection
- protection against lethal endotoxemia [2]: reproducible and dose-dependent protection
